Test results as given in paper PMC3554631, “Structural Basis of a Histone H3 Lysine 4 Demethylase Required for Stem Elongation in Rice” (PLoS Genetics, 2013).
Residue numbers refer to the chain shown, from its start. Numbers in names are those of the source.

B1: H394A: JMJ703 substitution mutant, Fe-binding residue (protein, UniProt Q53WJ1 1-1238, looked up, variant H394A)
Lysine-specific demethylase …: MMGVTTTLNEDTEPSIPPGFGPFATLPLWGIHNDAKPAVTHSTPVQALQSIRKDSEECQPSAAVSRSDTPCSTSGTQTCRKSLRNRPPIDYSRFEHISDEDSDVEIVEKDVSSTRRRQQLPKGVLRGCAECSDCQKVIAKWNPAGARRPVLDEAPVFYPTEEEFEDTLKYIESIRPMAEPYGICRIVPPSSWKPPCLLKDKSIWEGSKFSTRVQKVDKLQNRKSSKKGRRGGMMKRRKLAESEENSATAHTQTGMQQSPERFGFEPGPEFTLQTFQKYADDFSKQYFRKDTSMDSVPSVEDIEGEYWRIVEVPTEEIEVIYGADLETGTFGSGFPKLSPETKSDAEDKYAQSGWNLNNLPRLQGSVLSFEGGDISGVLVPWVYVGMCFSSFCWAVEDHHLYSLNYMHWGAPKLWYGVPGKDAVNLESAMRKHLPELFEEQPDLLHNLVTQFSPSLLKSEGVHVYRCVQHEGEFVLTFPRAYHAGFNCGFNCAEAVNVAPIDWLPIGHNAVELYREQARKITISHDKLLLGAAREAIRAQWDILFLKRNTADNMRWKSICGADSTIFKALKARIETELVQRKTLGVPAQSRKMDAEFDSIDRECALCYYDLHLSASGCPCCPEKYACLVHAKQLCSCDWDKRFFLFRYDVNELNILADALGGKLSAIHRWGVSDLGLSLSSCVKREKVQDSKTVRRLTDGPRRSYMSQASAVSLVSSSTSNEQKDEGNKIMKIASPQTNNVCPSVEQRKSENISPLKEPCVRNELSCTTNSDSNGLQYNGGLGGHKGSAPGLPVSSSPSFSSNVATRPISTSSVSMKIVQGLVASKSCIQASSRTGDSRSLLGEHHNRSPAMIHDGTNMKSSLESSNNSCRLIASDYNATPCHSSKDQVLVTPGTNASVVTLKDSSQVHSASSQQFVRTGPWTQSASHEASSPSTSALKPSLDPPAMKNLYGGFTQGSAHPGPPSFSNQQPNDGRLQRTSESLPGVEARARGHPTVTAQPALEIHSRNGGAQKGPRIANVVHRFKCSVEPLEIGVVLSGRLWSSSQAIFPKGFRSRVKYFSIVDPIQMAYYISEILDAGMQGPLFMVKLENCPGEVFINLSPTKCWNMVRERLNMEIRRQLNMGKSNLPTLQPPGSVDGLEMFGLLSPPIVQAIWARDRDHICTEYWRSRPHVLIEDPNNRHMLSQGPPLLALRGLIQRANRDELQVLRSLMTNSNNLDDSSRQQAAHIIEEEIAKQLC
B2: E396A: JMJ703 substitution mutant, methyl group-binding residue (protein, UniProt Q53WJ1 1-1238, looked up, variant E396A)
Lysine-specific demethylase …: B1 Lysine-specific demethylase … with A394H, E396A
B3: G376A: JMJ703 substitution mutant, methyl group-binding residue (protein, UniProt Q53WJ1 1-1238, looked up, variant G376A)
Lysine-specific demethylase …: B1 Lysine-specific demethylase … with G376A, A394H
B4: Y321A: JMJ703 substitution mutant, α-ketoglutaric acid-binding residue (protein, UniProt Q53WJ1 1-1238, looked up, variant Y321A)
Lysine-specific demethylase …: B1 Lysine-specific demethylase … with Y321A, A394H
B5: L447A: JMJ703 substitution mutant, residue conserved in H3K4 demethylases (protein, UniProt Q53WJ1 1-1238, looked up, variant L447A)
Lysine-specific demethylase …: B1 Lysine-specific demethylase … with A394H, L447A
B6: W381A: JMJ703 substitution mutant, residue conserved in H3K4 demethylases (protein, UniProt Q53WJ1 1-1238, looked up, variant W381A)
Lysine-specific demethylase …: B1 Lysine-specific demethylase … with W381A, A394H
B7: N496A: JMJ703 substitution mutant, methyl group-binding residue (protein, UniProt Q53WJ1 1-1238, looked up, variant N496A)
Lysine-specific demethylase …: B1 Lysine-specific demethylase … with A394H, N496A
B8: H482Y: JMJ703 substitution mutant, Fe-binding residue (protein, UniProt Q53WJ1 1-1238, looked up, variant H482Y)
Lysine-specific demethylase …: B1 Lysine-specific demethylase … with A394H, H482Y
B9: K412A: JMJ703 substitution mutant, α-ketoglutaric acid-binding residue (protein, UniProt Q53WJ1 1-1238, looked up, variant K412A)
Lysine-specific demethylase …: B1 Lysine-specific demethylase … with A394H, K412A
B10: Y383A: JMJ703 substitution mutant, methyl group-binding residue (protein, UniProt Q53WJ1 1-1238, looked up, variant Y383A)
Lysine-specific demethylase …: B1 Lysine-specific demethylase … with Y383A, A394H
B11: N404A: JMJ703 substitution mutant, α-ketoglutaric acid-binding residue (protein, UniProt Q53WJ1 1-1238, looked up, variant N404A)
Lysine-specific demethylase …: B1 Lysine-specific demethylase … with A394H, N404A
B12: A494S: JMJ703 substitution mutant, methylation state-specificity residue (protein, UniProt Q53WJ1 1-1238, looked up, variant A494S)
Lysine-specific demethylase …: B1 Lysine-specific demethylase … with A394H, A494S

What was measured:
[1] = target: FA-J3NCZ, FLAG:HA-tagged JmjN-JmjC-zinc finger region of JMJ703 (amino acids 113 to 700) (rice) (UniProt Q53WJ1); assay: SPR; J3NCZ (FA-J3NCZ) with different concentrations of peptide; set-up for this protein not told in the methods
[2] = target: c-JMJ703, catalytic core domain of JMJ703 (amino acids 139 to 498) (rice) (UniProt Q53WJ1); assay: SPR; BIAcore 3000, 25°C; c-JMJ703 amine-coupled to a CM5 chip; peptides injected at various concentrations at 10 µL/min for 2 min in 10 mM HEPES pH 7.5, 150 mM NaCl, 0.005% Tween20; reference flow cell subtracted
c-JMJ703, catalytic core domain of JMJ703 (amino acids 139 to 498) (rice), sequence (Q53WJ1 139-498): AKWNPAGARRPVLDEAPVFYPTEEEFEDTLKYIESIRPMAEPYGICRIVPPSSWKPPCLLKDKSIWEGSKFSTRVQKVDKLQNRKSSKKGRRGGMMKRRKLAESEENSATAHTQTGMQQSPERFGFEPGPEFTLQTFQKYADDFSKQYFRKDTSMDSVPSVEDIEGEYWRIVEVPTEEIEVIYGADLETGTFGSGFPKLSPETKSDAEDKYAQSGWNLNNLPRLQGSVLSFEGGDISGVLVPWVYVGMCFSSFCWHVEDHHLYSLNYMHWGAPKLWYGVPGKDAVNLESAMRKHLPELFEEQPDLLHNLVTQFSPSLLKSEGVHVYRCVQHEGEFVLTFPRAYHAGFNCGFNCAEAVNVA

H3K4me1 = assay: H3K4 demethylation assay in tobacco cells of JMJ703 substitution mutants, H3K4me1; type: cell-based; details: mutant expressed transiently in tobacco cells, immunostaining of nuclei, at least 30 nuclei per transfection
Protocol: (§1) The cDNA fragment of the J3NCZ region was amplified using primers FAJ3NCZ-F and FAJ3NCZ-R and then cloned into pFA121 vector modified from pBI121 (GenBank: AF485783.1), in which GUS was replaced by 2×FLAG∶2×HA tag. The pFA121-J3NCZ plasmid was transferred into Agrobacterium tumefaciens strain EHA105 cells for tobacco infection with the help of Agrobacterium cells harboring P19 plasmids. For in vivo histone demethylation assay, tobacco infection and nuclei isolation were performed as previously described. The immunostaining protocol was modified from http://sites.bio.indiana.edu/~pikaardlab. Briefly, the nucleus solution was placed on a poly-lysine coated slide, air dried, and then refixed with 4% formaldehyde in KPBS (1.28 M NaCl, 20 mM KCl, 80 mM Na2HPO4, 20 mM KH2PO4, pH7.2) containing 1% Triton X-100 for 20 min. After 3 washes with KPBS-1% Triton, slides were blocked with blocking solution (1% BSA in KPBS-1% Triton) and incubated at 37°C for 30 min. The blocking solution was washed off with KPBS-1% Triton and the slides were incubated with both anti-HA and histone méthylation specific antibodies diluted in blocking solution to 1∶300 at 4°C overnight. After washing with KPBS, slides were blocked and incubated with fluorescent-labeled antibodies at 37°C for 2 h. After washing with KPBS thrice, nuclei were stained with 5 µg/mL 4,6-diamidino-2-phenylindole (DAPI), coated with a drop of VECTASHIELD Mounting Medium (H-1000, Vector Laboratories), and then covered with a coverslip followed by confocal microscope (Leica) detection. In vitro histone demethylation assays were performed as previously described. FA-J3NCZ was purified after overexpression with Anti-FLAG M2 magnetic beads according the manufacturer's instruction (Sigma).
(§2) Supplementary file pgen.1003239.s006.tif: Figure S6 Demethylation assays for JMJ703 substitution mutants that have been produced based on the structural data. The mutant names are labeled at the top left corner of each panel. Image panels from left to right are staining by DAPI, anti-HA and anti-methylated histones, respectively. Bar = 10 µm. At least 30 nuclei that expressed JMJ703 per transfection were observed and imaged. (TIF) Click here for additional data file.

H3K4me2 = assay: H3K4 demethylation assay in tobacco cells of JMJ703 substitution mutants, H3K4me2; type: cell-based; details: mutant expressed transiently in tobacco cells, immunostaining of nuclei, at least 30 nuclei per transfection
Protocol: as §1, §2

H3K4me3 = assay: H3K4 demethylation assay in tobacco cells of JMJ703 substitution mutants, H3K4me3; type: cell-based; details: mutant expressed transiently in tobacco cells, immunostaining of nuclei, at least 30 nuclei per transfection
Protocol: as §1, §2

Molecule	Kd [1] [µM]	Kd [2] [µM]	H3K4me1 demethylation activity (H3K4me1)	H3K4me2 demethylation activity (H3K4me2)	H3K4me3 demethylation activity (H3K4me3)
H3K4me1 peptide	12.6	28.9	–	–	–
H3K4me2 peptide	15.1	19.3	–	–	–
H3K4me0 peptide	–	76.6	–	–	–
B1	–	–	no	no	no
B2	–	–	no	no	no
B3	–	–	no	no	no
B4	–	–	no	yes	yes
B5	–	–	no	no	no
B6	–	–	no	no	no
B7	–	–	no	yes	yes
B8	–	–	no	no	no
B9	–	–	no	no	no
B10	–	–	no	yes	no
B11	–	–	yes	yes	yes
B12	–	–	no	no	yes
